Laboratory results as given in US20100199379.

Test system: T1, Medicago sativa NAP1-like protein, 6×HIS-tagged, expressed in BL21 E. coli and purified on nickel agarose
T1 sequence: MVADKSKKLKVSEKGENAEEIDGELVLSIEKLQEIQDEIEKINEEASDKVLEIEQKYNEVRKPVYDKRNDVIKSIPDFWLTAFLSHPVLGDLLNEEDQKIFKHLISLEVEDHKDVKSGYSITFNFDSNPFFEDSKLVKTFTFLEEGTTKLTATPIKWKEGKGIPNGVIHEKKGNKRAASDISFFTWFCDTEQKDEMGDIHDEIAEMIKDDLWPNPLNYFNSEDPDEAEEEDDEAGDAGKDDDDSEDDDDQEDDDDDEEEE

## Protein Phosphatase 2A (PP2A) catalytic subunits purified from rabbit skeletal muscle
  PP2A activity on the phospho-histone H2A substrate (in vitro dephosphorylation of 32P-labelled substrate): already 2.5 mM concentration of the NAP1-like protein efficiently inhibited PP2A activity on the phospho-histonH2A substrate (50% decrease in activity)
  PP2A dephosphorylation of glycogen phosphorylase (in vitro, 32P-labelled substrate): the NAP1-like protein had no influence on the dephosphorylation of the glycogen phosphorylase even at 500 mM concentration
